Measurements published in patent US20020151590, “Compositions and methods for regulating circadian rhythyms” (published 2002).

Legend:
[1] = biological target: MOP4 (NPAS2):BMAL1 heterodimer (Homo sapiens, UniProt Q99743;O00327 Q99743:1-824,O00327:1-626); test: EMSA; 150 mM KCl, 20 mM Tris-HCl pH 7.6, 5 mM MgCl2, 200 ng poly(dI-dC), 4 C; RXRa/RARa with 9cisRA/tRA tested as inhibitors; gel result not shown in text; conditions: tags: reticulocyte lysate (TNT), CMX plasmids; label: 32P
From the text: (§1) A double-stranded [γ³²P]dATP-labeled consensus oligonucleotide, […] […] The samples were loaded directly onto 4% polyacrylamide-TBE gels to separate MOP4/CLOCK:BMAL1 bound DNA from free DNA. The gels were dried and analyzed on a PhosphorImager.

[2] = biological target: CLOCK:BMAL1 heterodimer (Homo sapiens, UniProt O15516;O00327 O15516:1-846,O00327:1-626); test: as above; conditions: tags: reticulocyte lysate (TNT), CMX plasmids; label: 32P
From the text: as §1

CLOCK:BMAL1 heterodimer, sequence (O15516 whole entry, chain 1 of 2): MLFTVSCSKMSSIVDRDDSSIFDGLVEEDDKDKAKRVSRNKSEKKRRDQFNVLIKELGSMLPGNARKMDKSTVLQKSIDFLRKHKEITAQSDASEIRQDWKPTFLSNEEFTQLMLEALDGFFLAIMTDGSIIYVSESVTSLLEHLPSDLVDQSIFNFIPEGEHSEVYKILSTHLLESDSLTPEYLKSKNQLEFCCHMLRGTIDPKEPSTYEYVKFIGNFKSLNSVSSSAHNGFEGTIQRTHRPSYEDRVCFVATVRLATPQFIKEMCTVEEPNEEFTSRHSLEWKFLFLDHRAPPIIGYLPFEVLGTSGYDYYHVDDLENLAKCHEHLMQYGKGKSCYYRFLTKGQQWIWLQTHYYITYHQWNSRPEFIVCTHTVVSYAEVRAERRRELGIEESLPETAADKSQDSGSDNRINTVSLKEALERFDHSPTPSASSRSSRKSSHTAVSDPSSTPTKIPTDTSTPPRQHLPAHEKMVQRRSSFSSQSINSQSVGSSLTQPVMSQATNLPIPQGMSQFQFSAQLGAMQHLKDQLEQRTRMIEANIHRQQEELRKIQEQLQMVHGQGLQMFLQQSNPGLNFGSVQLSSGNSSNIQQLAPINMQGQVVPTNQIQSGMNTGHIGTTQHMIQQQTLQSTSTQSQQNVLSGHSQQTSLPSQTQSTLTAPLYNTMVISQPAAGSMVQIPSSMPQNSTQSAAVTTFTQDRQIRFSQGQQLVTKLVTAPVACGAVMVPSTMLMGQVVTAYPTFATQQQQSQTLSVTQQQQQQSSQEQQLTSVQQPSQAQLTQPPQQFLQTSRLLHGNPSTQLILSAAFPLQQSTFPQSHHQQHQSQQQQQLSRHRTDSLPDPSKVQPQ
CLOCK:BMAL1 heterodimer, sequence (O00327 whole entry, chain 2 of 2): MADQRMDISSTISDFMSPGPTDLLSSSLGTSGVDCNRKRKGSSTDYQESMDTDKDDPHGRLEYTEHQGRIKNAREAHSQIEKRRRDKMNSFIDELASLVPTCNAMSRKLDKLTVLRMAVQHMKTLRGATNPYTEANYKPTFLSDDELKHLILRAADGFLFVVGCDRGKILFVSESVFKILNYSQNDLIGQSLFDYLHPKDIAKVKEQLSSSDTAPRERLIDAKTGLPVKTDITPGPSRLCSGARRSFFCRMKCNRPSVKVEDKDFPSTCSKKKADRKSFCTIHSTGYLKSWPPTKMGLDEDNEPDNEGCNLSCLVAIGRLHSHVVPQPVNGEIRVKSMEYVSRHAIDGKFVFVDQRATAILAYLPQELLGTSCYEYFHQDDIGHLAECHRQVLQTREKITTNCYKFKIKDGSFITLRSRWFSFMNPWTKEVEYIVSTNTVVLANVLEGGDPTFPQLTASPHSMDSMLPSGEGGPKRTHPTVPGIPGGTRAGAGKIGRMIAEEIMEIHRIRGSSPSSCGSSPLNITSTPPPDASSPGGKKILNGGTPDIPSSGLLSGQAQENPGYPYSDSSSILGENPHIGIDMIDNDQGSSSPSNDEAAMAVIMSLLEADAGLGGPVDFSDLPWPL
MOP4 (NPAS2):BMAL1 heterodimer, sequence (Q99743 whole entry, chain 1 of 2): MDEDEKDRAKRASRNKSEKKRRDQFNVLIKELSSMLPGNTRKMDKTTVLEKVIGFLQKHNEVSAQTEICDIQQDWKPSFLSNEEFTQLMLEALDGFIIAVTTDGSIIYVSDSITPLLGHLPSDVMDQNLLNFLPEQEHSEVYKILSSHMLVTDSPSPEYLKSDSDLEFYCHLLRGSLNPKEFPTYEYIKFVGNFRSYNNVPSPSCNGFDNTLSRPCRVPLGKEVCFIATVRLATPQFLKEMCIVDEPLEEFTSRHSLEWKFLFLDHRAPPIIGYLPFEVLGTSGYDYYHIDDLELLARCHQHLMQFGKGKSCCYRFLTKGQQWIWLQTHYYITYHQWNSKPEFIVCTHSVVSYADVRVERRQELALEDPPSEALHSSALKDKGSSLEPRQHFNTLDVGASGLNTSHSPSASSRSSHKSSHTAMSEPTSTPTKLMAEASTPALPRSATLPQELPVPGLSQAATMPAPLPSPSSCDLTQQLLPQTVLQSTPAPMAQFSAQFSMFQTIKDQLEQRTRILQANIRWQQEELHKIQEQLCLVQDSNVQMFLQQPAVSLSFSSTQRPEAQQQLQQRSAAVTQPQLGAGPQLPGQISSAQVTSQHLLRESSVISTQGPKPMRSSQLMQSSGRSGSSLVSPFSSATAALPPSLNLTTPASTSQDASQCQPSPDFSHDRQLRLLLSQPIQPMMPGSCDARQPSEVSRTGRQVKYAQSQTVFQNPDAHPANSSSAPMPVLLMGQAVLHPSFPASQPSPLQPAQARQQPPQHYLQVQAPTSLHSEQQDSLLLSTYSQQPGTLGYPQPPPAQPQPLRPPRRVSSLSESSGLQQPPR
MOP4 (NPAS2):BMAL1 heterodimer, sequence (O00327 whole entry, chain 2 of 2): as the sequence (O00327 whole entry, chain 2 of 2) above

B1: E-box consensus oligonucleotide (dsDNA)
DNA 1: GGGACACGTGACCC
DNA 2: GGGTCACGTGTCCC
binding result [1]: binds
binding result [2]: binds
